The target of test [1] is C.1086 SOSIP gp140 (HIV-1 (clade C, C.1086)). Description: SEC. On the technique in general: In gel filtration, larger molecules generally elute earlier.
Test [2] concerns the target C.1086 NFL gp140 (Native Flexibly Linked with I559P) (HIV-1 (clade C, C.1086)). Description: SEC.
The target of test [3] is C.1086 UFO gp140 (Uncleaved preFusion Optimized, no disulfide linkage between A501 and T605) (HIV-1 (clade C, C.1086)). Description: negative stain electron microscopy.
For test [4] the target is unchanged. Description: SEC.
In test [5] the target is BG505 SOSIP.664 (HIV-1 (clade A, BG505)). Description: SEC.

As usually defined, the stoichiometry N is a count of units in the complex or per binding partner.

For the substance C.1086 SOSIP gp140 (natural protein), in test [1], the stoichiometry N worked out at 3.

In test [2], “C.1086 NFL gp140 (Native Flexibly Linked with I559P) (natural protein)” showed a stoichiometry N of 3.

Consider “C.1086 UFO gp140 (Uncleaved preFusion Optimized, no disulfide linkage between A501 and T605) (natural protein)”, for which the stoichiometry N in test [3] and in test [4] was 3 throughout.

Substance BG505 SOSIP.664 (natural protein) yielded a stoichiometry N in test [5] of 3.

For the origin of these results see paper doi:10.1101/2021.06.15.447100.
